Test results reported in patent publication US20060121535.

Key:
GST-Crkl (SH3) = GST-Crkl (SH3) (UniProt P46109)
[1] = system: GST-EEEIYGEFE (SEQ. ID. NO: 1) fusion protein

GST-Crkl (SH3), sequence (P46109 120-303): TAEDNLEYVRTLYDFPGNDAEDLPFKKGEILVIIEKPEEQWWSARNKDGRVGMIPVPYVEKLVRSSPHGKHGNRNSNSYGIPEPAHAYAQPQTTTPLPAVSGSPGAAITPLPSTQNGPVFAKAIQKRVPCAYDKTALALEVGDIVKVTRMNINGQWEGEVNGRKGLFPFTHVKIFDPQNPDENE

Substance | Crkl phosphorylation in pure HL60 lysate (Bcr-Abl-) relative to pure K562 lysate (Bcr-Abl+) (GST-Crkl (SH3)) | Km of phosphorylation, substrate in solution (Lineweaver-Burk) [1] | Km of phosphorylation, surface-immobilized substrate (Lineweaver-Burk) [1] | Vmax of phosphorylation, substrate in solution (Lineweaver-Burk) [1] | Vmax of phosphorylation, surface-immobilized substrate (Lineweaver-Burk) [1]
Bcr-Abl tyrosine kinase in K562 cell lysate | the level of Crkl phosphorylation in the pure HL60 cell lysate is only 3.5% of that observed in the pure K562 cell lysate |  |  |  | 
protein-tyrosine kinase p60^c-src (Calbiochem) |  | Km=2.7±1.0 µM | Km=0.36±0.033 µM | Vmax=8.1±3.1 (arbitrary units) | Vmax=9.7±0.63 (arbitrary units)
